Laboratory results taken from the supplement of paper PMC11865577.

What was measured:
Test in all cases: pull-down binding Z-score (relative to library population); higher = stronger binding
Conditions in all cases: RNA library: Library-2
[1] = system: TO-N3-2 (biotin conjugate)
In short: (§1)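 Heat-folded RNA library (1 μg, Cy5 or Cy3 end label, phosphate/NaCl/KCl buffer) was captured for 60 min at 25 °C on streptavidin beads displaying 100 pmol of biotin-conjugated small molecule, then washed three times. The bound fraction, eluted in hot SDS, was hybridised to a DNA barcode microarray at 55.5 °C for 20 h. Z-scores for binding were taken against the library mean and standard deviation after beads-only subtraction and trimmed averaging of replicate barcoded probes.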

[2] = system: TO-3-N3-2 (biotin conjugate)
In short: as §1

TO-N3 (biotin conjugate) = system: TO-N3 (biotin conjugate)
In short: as §1

[3] = system: TO-3-N3 (biotin conjugate)
In short: as §1

| Sequence | pull-down binding Z-score [1] | pull-down binding Z-score [2] | pull-down binding Z-score (TO-N3 (biotin conjugate)) | pull-down binding Z-score [3] |
| --- | --- | --- | --- | --- |
| GGUUUAACUUCUAUUAAAUGGGCAGAUAACAACUGUUAUCUUGCCACUGCAUUGUUAACACUCCAACAAAUAGAGUUGAAGUUUAAUCC | -0.63 | -0.273 | -0.793 | -0.726 |
| GGUUUAGCUGCUGUUAAUAGUGUCCCUUGGGAUACUAUAGCUAAUUAUGCUAAGCC | -0.225 | -0.323 | 0.141 | 0.621 |
| GGUUUAUACCUUCCCAGGUAACAAACC | -1.05 | -0.582 | -0.928 | -0.697 |
| GGUUUGUUACAGACACACC [SHAPE_invivo_SARS-CoV-2_Motif_243] | -0.785 | -0.488 | -0.748 | -0.427 |
| GGUUUGUUGCC [IAV_invivo_PB1_2_Motif_26+IAV_invivo_PB1_2_Motif_26] | -0.374 | -0.261 | -0.146 | 0.00909 |
| GGUUUUAUAGCUGGCUUGAUUGCCAUAGUAAUGGUGACAAUUAUGCUUUGCUGUAUGACC | -0.582 | -0.541 | -0.717 | -0.96 |
| GUAAAUUUACUUAC [DMSMaPseq_invitro_SARS-CoV-2_Motif_170] | -0.635 | -0.105 | 0.563 | 0.655 |
| GUAAGAGAAUUCCUUAC | -0.727 | -0.0559 | -0.531 | -0.366 |
| GUAAUGAUCCAUUUUUGGGUGUUUAUUAC [DMSMaPseq_invitro_SARS-CoV-2_Motif_387] | -0.998 | -0.129 | -0.308 | -0.1 |
| GUACAUACAGCUAAUAAAUGGGAUCUCAUUAUUAGUGAUAUGUAC | 0.426 | -0.167 | -0.621 | -0.823 |
| GUACAUGGGCACACUUUCUUAUGAACAAUUUAAGAAAGGUGUUCAGAUAC [DMSMaPseq_invitro_SARS-CoV-2_Motif_106] | -0.639 | 0.0305 | -0.353 | -0.377 |
| GUACAUGGGCACACUUUCUUAUGAACAAUUUAAGAAAGGUGUUCAGAUACCUUGUAC [SHAPE_invitro_SARS-CoV-2_Motif_110] | -1.11 | -0.44 | -1.06 | -0.767 |
| GUACCAAAGGUGC [IAV_invivo_PB1_2_Motif_35+IAV_invivo_PB1_2_Motif_35] | -0.382 | -0.26 | -0.215 | -0.101 |
| GUACCUCAAGCUGAUGUAGAAUGGAAGUUCUAUGAUGCACAGCCUUGUAGUGAC [SHAPE_invitro_SARS-CoV-2_Motif_348] | 0.735 | -0.203 | -0.178 | -0.418 |
| GUACGAUCGAGUGUAC [DMSMaPseq_invitro_SARS-CoV-2_Motif_538] | 0.0595 | -0.222 | 0.105 | 0.143 |
| GUACUUAAUGAGAAGUGC [SHAPE_invivo_SARS-CoV-2_Motif_56] | -0.836 | -0.138 | -0.461 | -0.216 |
| GUACUUGGUAGUUUAGCUGCCACAGUAC | -0.818 | -0.291 | -0.688 | -0.525 |
| GUAGACAAUUCUAGUCUUAC [SHAPE_invitro_SARS-CoV-2_Motif_131] | -0.316 | -0.243 | 0.441 | 0.702 |
| GUAGAGGAGGCAAAGACAGUGCUUAAAAAGUGUAAAAGUGCCUUUUAC | 0.576 | 0.448 | -0.193 | -0.449 |
| GUAUCUGAAUUAC | -0.281 | -0.196 | -0.136 | 0.0447 |
| GUAUGAGCAGUAUAU [DMSMaPseq_invitro_SARS-CoV-2_Motif_451] | -0.416 | -0.295 | -0.709 | -0.638 |
| GUCAAAGUGAC [SHAPE_invivo_SARS-CoV-2_Motif_385] | -0.851 | -0.543 | -0.434 | -0.196 |
| GUCAAAGUGACUAUUGAC [SHAPE_invitro_SARS-CoV-2_Motif_373] | -0.385 | -0.444 | -0.53 | -0.385 |

| Sequence | pull-down binding Z-score [1] | pull-down binding Z-score [2] | pull-down binding Z-score (TO-N3 (biotin conjugate)) | pull-down binding Z-score [3] |
| --- | --- | --- | --- | --- |
| GUCACACCUUCGGGAACGUGGUUGAC | 0.518 | -0.338 | -0.0943 | -0.558 |
| GUCAGUGAAACACAGGGAACAGAGAAACUGAC [IAV_invivo_PB2_1_Motif_24+IAV_invivo_PB2_1_Motif_24] | 0.355 | 0.282 | -0.399 | -0.496 |
| GUCCUAAAGUGAAGUAUUUAUACUUUAUUAAAGGAU [SHAPE_invivo_SARS-CoV-2_Motif_244] | -1.51 | -0.605 | -1.19 | -0.854 |
| GUCCUAUUACGGAU | -1.55 | -0.505 | -1.37 | -0.9 |
| GUCGCUACAGGAUUGGCAACUAUAAAUUAAACACAGACCAUUCCAGUAGCAGUGAC [SHAPE_invitro_SARS-CoV-2_Motif_494] | -0.283 | 0.215 | 0.0101 | 0.00722 |
| GUCGUUGACAGGACACGAGUAACUCGUCUAUCUUCUGCAGGCUGC [SARS-CoV-2-Conserved-Structured-34_Interval-80-197_Motif_3] | 2.14 | 0.148 | 0.831 | -0.455 |
| GUCUAAUCUCAAACCUUUUGAGAGAGAU | -1.07 | -0.695 | -1.19 | -0.801 |
| GUCUAGCUGUCCACGAGUGCUUUGUUAAGCGUGUUGACUGGAC | -0.24 | -0.348 | -0.138 | -0.128 |
| GUCUCCUACUAAAUUAAAUGAUCUCUGCUUUACUAAUGUCUAUGCAGAUUCAUUUGUAAUUAGAGGUGAU | -0.628 | -0.285 | -0.922 | -0.707 |
| GUCUCGCACCCGCGAGAU [IAV_invivo_PB2_1_Motif_2+IAV_invivo_PB2_1_Motif_2] | -0.742 | -0.362 | 0.279 | 0.583 |
| GUCUCUAUAGAAAUAGAGAU | -1.36 | -0.397 | -0.156 | 0.213 |
| GUCUCUGAAGAAGUAGUGGAAAAUCCUACCAUACAGAAAGAC | 0.831 | 0.0814 | 0.289 | -0.0809 |
| GUCUGAUAAUGGACCCCAAAAUCAGCGAAAUGCACCCCGCAUUACGUUUGGUGGACCCUCAGAU | -0.0686 | -0.237 | -0.521 | -0.49 |
| GUCUGGGAUCAACGAGUCAGCGGAC [IAV_invivo_PB1_2_Motif_28+IAV_invivo_PB1_2_Motif_28] | 0.401 | -0.51 | -0.256 | -0.28 |
| GUCUGGUAGUCGGAC [IAV_invivo_NA_6_Motif_1+IAV_invivo_NA_6_Motif_1] | -0.21 | -0.235 | -0.173 | -0.00665 |
| GUCUUACACCGUGCGGCACAGGCACUAGUACUGAUGUCGUAUACAGGGCUUUUGAC [DMSMaPseq_invitro_SARS-CoV-2_Motif_242] | 0.217 | 0.0142 | 0.173 | -0.0912 |
| GUCUUUCCAGGGGC [IAV_invivo_NP_5_Motif_23+IAV_invivo_NP_5_Motif_23] | -0.0606 | -0.414 | -0.393 | -0.313 |
| GUGAAACAUUUGUCAC [SHAPE_invivo_SARS-CoV-2_Motif_46] | -0.394 | 0.013 | 0.532 | 0.818 |
| GUGAAGAAUCAU | -0.489 | -0.146 | 0.379 | 0.637 |
| GUGAAUUCAACAU [DMSMaPseq_invitro_SARS-CoV-2_Motif_308] | -0.524 | -0.213 | -0.428 | -0.238 |
| GUGAGAGAGAGCCGGAACCCAGGGAAUGCUGAGUUCGAAGAUCUCAC [IAV_invivo_NP_5_Motif_14+IAV_invivo_NP_5_Motif_14] | 1.5 | 0.125 | 0.687 | 0.351 |
| GUGAUAGAGCCAUGCCUAACAUGCUUAGAAUUAUGGCCUCAC | -0.0566 | 0.0068 | 0.179 | 0.323 |
| GUGAUGAACUGAAGAUUAAUGCGGCUUGUAGAAAGGUUCAACACAUGGUUGUUAAAGCUGCAUUAUUAGCAGACAAAUUCCCAGUUCUUCAC | 0.059 | 0.69 | 0.101 | -0.0396 |

| Sequence | pull-down binding Z-score [1] | pull-down binding Z-score [2] | pull-down binding Z-score (TO-N3 (biotin conjugate)) | pull-down binding Z-score [3] |
| --- | --- | --- | --- | --- |
| GUGCACUUGACCCUCUCUCAGAAACAAAGUGUAC [SHAPE_invivo_SARS-CoV-2_Motif_422] | -0.312 | -0.137 | 0.229 | 0.278 |
| GUGCAGAAUGAAUUCUCGUAACUACAUAGCACAAGUAGAUGUAGUUAACUUUAAUCUCAC | -0.275 | -0.202 | -0.646 | -0.768 |
| GUGCCACUCCAUGGCAC | -0.862 | -0.276 | 0.324 | 0.641 |
| GUGCCAGCACAAAAUGCUAUAAGCAC [IAV_invivo_PB1_2_Motif_3+IAV_invivo_PB1_2_Motif_3] | -0.727 | -0.201 | -1.07 | -0.871 |
| GUGCCAUCAAAUUGGAUGACAAAGAUCCAAAUUUCAAAGAUCAAGUCAUUUUGCUGAAUAAGCAUAUUGACGCAU | -0.159 | -0.165 | -0.411 | -0.675 |
| GUGCCCAAAAUACGUCAGGAGUGC [IAV_invivo_HA_4_Motif_13+IAV_invivo_HA_4_Motif_13] | 0.402 | 0.129 | 0.0361 | -0.325 |
| GUGCCUGGAAUAUUGGUGAACAGAAAUCAAUACUGAGUCCUCUUUAUGCAUUUGCAUCAGAGGCUGCUCGUGUUGUACGAUCAAUUUUCUCCCGCAC [SHAPE_invivo_SARS-CoV-2_Motif_37] | 0.225 | -0.0608 | -0.115 | -0.254 |
| GUGCGGCACAGGCACUAGUACUGAUGUCGUAU [SHAPE_invitro_SARS-CoV-2_Motif_246] | 0.326 | 0.0228 | 0.568 | 0.297 |
| GUGCGUAUAAAGAUUGUACAAAUGUUAAGUGACACACUUAAAAAUCUCUCUGACAGAGUCGUAUUUGUCUUAUGGGCAC [DMSMaPseq_invitro_SARS-CoV-2_Multi_54_ComplexLevel_1] | -0.644 | -0.29 | -0.833 | -1.04 |
| GUGCUAAGCAC | -1.24 | -0.435 | -0.59 | -0.151 |
| GUGCUAAUGACCCUGUGGGUUUUACAC [SHAPE_invivo_SARS-CoV-2_Motif_252] | -0.465 | -0.275 | 0.0247 | 0.178 |
| GUGCUUGGGACAUUUGAUACCGCAC [IAV_invivo_PB2_1_Motif_30+IAV_invivo_PB2_1_Motif_30] | 0.571 | -0.147 | -0.171 | -0.258 |
| GUGGAUGGUUAUGUUCAC | -0.628 | -0.266 | -0.236 | 0.0943 |
| GUGGCACUGAGAAUUUGACUAAAGAAGGUGCCAC | 0.38 | 0.147 | 0.595 | 0.452 |
| GUGGCCCUGAUGGCUAC | -0.0973 | -0.622 | -0.412 | -0.362 |
| GUGGCUAAAUCUGAAUUUGACCGUGAUGCAGCCAU [DMSMaPseq_invitro_SARS-CoV-2_Motif_214] | -0.12 | -0.199 | -0.504 | -0.576 |
| GUGGGGUAUUCAUCACCCGC [IAV_invivo_HA_4_Motif_9+IAV_invivo_HA_4_Motif_9] | 0.897 | 0.689 | 1.62 | 1.69 |
| GUGGUAGUUAUACUAAUGACAAAGCUUGCCCAUUGAUUGCUGC [DMSMaPseq_invitro_SARS-CoV-2_Motif_161] | 0.208 | 0.207 | 0.498 | 0.409 |
| GUGGUGAGACACUUGGUGUCCUUGUCCCUCAUGUGGGCGAAAUACCAGUGGCUUACCGC | 0.812 | -0.0757 | 0.798 | 0.769 |
| GUGGUUAUACCUACUAAAAAGGCUGGUGGCACUACUGAAAUGCUAGCGAAAGCUUUGAGAAAAGUGCCAACAGACAAUUAUAUAACCAC | 0.179 | 0.156 | -0.353 | -0.608 |
| GUGGUUGACCUACACAGGUGCCAU | 0.102 | -0.562 | -0.612 | -0.678 |
| GUGUAAAAGUGCCUUUUACAU | -0.872 | -0.646 | -0.957 | -0.525 |
